From a protein production outcome set (Wang et al. 2014)

Test: label from the status in PepcDB records

| Sequence | protein production |
| --- | --- |
| MKASIEQLEPYVPEKPLATLQAELGLTELVRLSANENPYGTSPKVATAVKNWDFTQSNRYPDADAQELRQAVAQQQGIDPNSIVFSVGLDEMIVMLSRTFLATNDQVLVSAPTFSEYGLHAEIEGGQLISVPTLPNDHVNFEGLMKAITPHVKMVWLCNPNNPTGTVESLAAIEAFVQQVPPETMVLIDEAYIDFTPGAAQVTAMQLPAKYPNVVVMRTFSKAYGLANFRIGYAVFNTKYAATMQTIRLPYNVNSLAQVAALAAIDDPNFVKQTVQKNATERAKWMAFFDDQGVTYDQSGANFIFFKYPSATQLADYLVHHGYLIRTGLRPGWLRLTVGTANDNQQLQQLIREFKA | failed |
| MEKRELKASVPKFDKIPWLSEASLVNKPLVLSLPRRYPHTSATFLTSSKKNMNLPILFQVPDVLSKARRNQCDSMLLRNQQLCSTCQEMKMVQPRTMKIPDDPKASFENCMSYRMSLHQPKFQTTPEPFHDDIPTENIHYRLPILGPRTAVFHGLLTEAYKTLKERQRSSLPRKEPIGKTTRQ | failed |
| MVRPYGIKVNKRKEREERYDKEEDEVEEQPKFEQKQKARESSKKAKKESTSRAEEDNDEEEVTVEATAAAEDIVGGIPIVLNAPNKEKSGIVFVLEKASLEVAKVGKTYQLLNSDDHANFLKKNNRNPADYRPDITHQALLMILDSPVNKAGRLKAVYVRTEKGVLFEVKPHVRIPRTFKRFAGIMLQLLQKLSITAVNSREKLLRCVKNPIEEHHLPVNSHRIGFSHSSEKLVNMQKHLATVCDDDRDTVFVVGAMAHGKIDCNYIDEFVSVSEYPLSAAYCISRICEALATNWNII | failed |
| NKEFTWTSALTFTLNNEKVKSLIGGTADHVKNEDYYLSIGYPVNSFYAPKIDGMWQLGEETDAAAFGCAPGDIKINVPGMIKEADGKFYKVGDDGQPLTDKNGDIIYYTKDNKYTYSDADSQVLGHNAPKWTMGFQNSFTYKNFDLTIYAYFRWGQMINYEMLGWYDSTGKGNFPTYFNYWTESNPSNDFPALNANRETKSYIGYGSLNYVDGSFFKIKNITLGYTFPERLLKNAGISKCRLYATITNPLTVAKSHLLKDYDPEMNGALKYPLSKQLVFGVNVSF | failed |
| VEPVPDTHLRGITCLDHENEKVNMYCVSDDQLICALCKLVGRHRDHQVASLNDRFEKLKQTLEMNLTNLVK | not failed |
| MAVERPGYLRIAAELRKRISSGEFGIGDQIPTLPALAEEYGVLETTVRNALALLRNEGLIETRARAGTRVRERPPIHRLTADRYRNKAGVPSTPFTRDQGIGWSEYRLDKKYEQVEATMELAALFECEVGEPLLARHFVFHDNDQPTQMSVSYLRWSDVEGSPVADPIHEPWPGGTQAQLASIGIRVTEITESFTCGMPTDHESKTLKIGSGVPVLRYTRRHIAEDGRIVEVAHPIVRRGDTTVVDFVIKLD | failed |
| MIWIVGSGTCRGQTTERAKEIIERAEVIYGSRRALELAGVVDDSRARILRSFKGDEIRRIMEEGREREVAVISTGDPMVAGLGRVLREIAEDVEIKIEPAISSVQVALARLKVDLSEVAVVDCHAKDFDAELTELLKYRHLLILADSHFPLERLGKRRVVLLENLCMEGERIREGNADSIELESDYTIIFVEREVME | not failed |
| MAKSVNALINEAIEAGKKRDYKTSILILENLAAEGLAEVSSPFYGEKKGNPEIYLYLSRAWAAVNNYGRSIAYGKAYIKRCSSDPSANSTDLPMGFFFLGRSYLAAGQYDRAVYCLEKSLKLNPHPLETRAMLGSAYLKWKKPRLARETFEEALKFAPSDAKLNAGYLNSLFVEGIYELRNGNADMARQMFSFAIKNGIDGVAPRLYLAHALKMEGYLPEALGQYEAACEFEPDDPALKWYPAMIKMQLGDTTAAAEDFAKLGIEIPDDGVSDRFFAMGVIKKHMERGDYSRAAVAARIFIKTFGSDAEIRLLAAEAQRSMGNTNTALGHYKCALEHEPENPYPHYGIMLALQEAYRWEELSAEILRAEASGVCDADDIYYYKIITAAHIDNPPEEVLPHLQALIQNGRSDSAIFNAMGCCYIKLNMPDLALNWYERALSINEKDEEAKIGIIASYENLQLNKEADEAYNSYLNEWGKNIYIRRDYVLFLEKCERWEDAGNQLEILMSQGKKVNFDPELALFRRKAGQYQKAAILYRKMLRAKPEERLLLHNLVFCLDKMGQTKVSLDLLKAAEKMFGIKTDSMLIKGILQMRLKKKEDAIKTFQYILEKEPKNKHAAEFLEKAYGK | failed |
| EKQSIHRTQLEALDSVITDLETSAQKGISLTEPEIFASLLETCYSLRAIDHGVRVHHLIPPYLLRNNLGISSKLVRLYASCGYAEVAHEVFDRMSKRDSSPFAWNSLISGYAELGQYEDAMALYFQMAEDGVKPDRFTFPRVLKACGGIGSVQIGEAIHRDLVKEGFGYDVYVLNALVVMYAKCGDIVKARNVFDMIPHKDYVSWNSMLTGYLHHGLLHEALDIFRLMVQNGIEPDKVAISSVLARVLSFKHGRQLHGWVIRRGMEWELSVANALIVLYSKRGQLGQACFIFDQMLERDTVSWNAIISAHSKNSNGLKYFEQMHRANAKPDGITFVSVLSLCANTGMVEDGERLFSLMSKEYGIDPKMEHYACMVNLYGRAGMMEEAYSMIVQEMGLEAGPTVWGALLYACYLHGNTDIGEVAAQRLFELEPDNEHNFELLIRIYSKAKRAEDVERVRQMMVDRGLET | not failed |
| MATYNYPEFGAGLWHFANYIDRYAVDGYGPALSTIDQINAAKEVGELSYVDLPYPFTPGVTLSEVKDALKDAGLKAIGITPEIYLQKWSRGAFTNPDPAARAAAFELMHESAGIVRELGANYVKVWPGQDGWDYPFQVSHKNLWKLAVDGMRDLAGANPDVKFAIEYKPREPRVKMTWDSAARTLLGIEDIGLDNVGVLLDFGHALYGGESPADSAQLIIDRGRLFGMDVNDNLRGWDDDLVVGTVHMTEIFEFFYVLKINNWQGVWQLDQFPFRENHVEAAQLSIRFLKHIYRALDKLDIPALQAAQEAQNPLQAQRIVQDALLSSITVSE | not failed |
| MSLRSKRVLVVEDNPDDIALIRRVLDRKDIHCQLEFVDNGAKALYQVQQAKYDLIILDIGLPIANGFEVMSAVRKPGANQHTPIVILTDNVSDDRAKQCMAAGASSVVDKSSNNVTDFYGRIYAIFSYWLTVNHCQEGHHHHHH | not failed |
| MTDDVTNVEQPSTASEQQPQDVPAAEPSAAKKRRANKAKSKATAAAIEQRLGHSFADPSLLTTAFTHVSALKSARRTDSYQRLEFLGDHVLGLIVSDMLYRAFPDADEGELSKRLADLVRKETCADVARSLDLVEGIKLGTVGAGAGAKLRKSVLGDICEAVIGAIYLDGGYEAASDFVRRNWTERMRKPARSLRDPKTVLQEWAQARGLPTPVYREVERTGPHHDPQFRVAVILPGLEPAEGLGGSKRAAEKVAASAMLAREGVGTGGNDG | failed |
| SAELGLNEHHQNEVINYMRFARSKRGLRLKTVDSCFQDLKESRLVEDTFTIDEVSEVLNGLQAVVHSEVESELINTAYTNVLLLRQLFAQAEKWYLKLQTDISELENRELLEQVAEFEKAEITSSNKKPILDVTKPKLAPLNEGGTAELLNKEILRLQEENEKLKSRLKTIEIQATNALDEKSKLEKALQDLQLDQGNQKDFIKAQDLSNLENTVAALKSEFQKTLNDKTENQKSLEENLATAKHDLLRVQEQLHMAEKELEKKFQQTAAYRNMKEILTKKNDQIKDLRKRLAQYEPED | not failed |
| MLPIYTGSAIQCPMRLDAYLVEMGHFKSRGRAKTAILDGKVKVNGIAVTKVSRDVSIDDTIEVAEGLDQPQGYFKLKYVQEESGVLKPGDRVLDLGSSAGGFLLFASEIADHVKGIEFSRDFRSELGKIAYERENVEIIFGDVFTIPLKELSEEPVDVILSDMTLEPEDSIKALSRMLPLLKEGGRLLQVIKIPKKKNPKPILSRIENLGLEIQQVLSSEKQEIYVVAKRPFLEGKESTEENE | failed |
| SLQCIFLISDSGEVMLEKQLTGHRVDRSICAWFWDQYISQGDSFKALPVIASPTHYLFQIVRDGITFLACSQVEMPPLMAIEFLCRVADVLSEYLGGLNEDLIKDNFIIVYELLDEMIDNGFPLTTEPSILKEMIAPPNLVSKMLSVVTGNASNVSDTLPSGAGSCVPWRPTDPKYSSNEVYVDLVEEMDAIVNRDGELVKCEIYGEVQMNSQLTGFPDLTLSFANPSILEDMRFHPCVRYRPWESHQVLSFVPPDGEFKLMSYRVKKLKNTPVYVKPQITSDSGTCRISVLVGIRSDPGKTIESITLSFQLPHCVSSADLSSNHGTVTILSNKTCTWTIGRIPKDKTPCLSGTLALEPGLERLHVFPTFKLGFKIMGIALSGLRIEKLDLQTIPPRLYKGFRAQTRTGEFDVRL | failed |
| PPQAMNALMRLNQLKPGLQYKLVSQTGPVHAPIFTMSVEVDGNSFEASGPSKKTAKLHVAVKVLQDMGLPTGAEGRDSSKGEDS | failed |
| MGHHHHHHSHMSNAEDIRDLVVTFLEGLRKRSKYVVALQDNPNPAGEESGFLSFAKGDLIILDHDTGEQVMNSGWANGINERTKQRGDFPTDCVYVMPTVTMPPREIVA | failed |
| MRILADTNVIIDALTSREPWNKSAEEIFLMAANHTIEMYITASSATDIYYLIRKHLHNTETAKMIMGKLYSLTGILEVTADDCMDALASAISDYEDAVVEKVASRKDMDYIVTRNIKDYQAGGTKIILPDDFVKLVEEELEHHHHHH | failed |
| MVKIEVAKPINFNRLITSKEAEVVSMRILNQPNSYISLFSLAKDEEITAEAMLGNRYYYCFNGNGEIFIENNKKTISNGDFLEITANHNYSIEARDNLKLIEIGEKIGDGNMENKTLKMLESASAFNLAEVVEYQEGKIVSKNLVAKPNLVMTIMSFWKGESLDPHKAPGDALVTVLDGEGKYYVDGKPFIVKKGESAVLPANIPHAVEAETENFKMLLILVKE | not failed |
| MPLFSQHTARFSPDVPLEGTSSRELLKRYQPLETLATGGFGSIEICRDTHLRRRVAIKRIPLINGAGMPASDIMDVLREAHTAAMLQHPNIVQVIDFTHDTAYAYLVMEYVDGMSLAEFLHRVDGHSLTFDEAAAIADALGQALTFAHSNGVLHLDIKPANVLIDHSGNVKLTDFGMARLSSAGGFGGSRGGTIGYMPPEQLDIETGTVDERADVFALACVIYEGLCGSAPFMAATPADSLGHIIGGATYPSELIPHFPPGAESALMSALSPMPQDRPNSIEAFCDQLLAGLGSVREGRRSLEQMVGELSDDEQELDDIEPSHYEDDAIEVDPALGWAGTRWSHARDYTMRTISALTCGTFSFLLMQTAGVAALPGLVIAAIAIGAAAGLAPQIGSAISAVGFLVLMANATMQAQGILSMLPVAVIFAAAMSGWWIAWGRTETAASATLTCALALGCLTGNTFLAAGVAAGVASFWLGPASAAAATGMGALFARLATVALSAGGVLGLGNVAAALGDPLLWAAFVLVAATAAASSALLNVHAKRANQGSNLAAIAAIAVTGIGCAAASCLAHHMEIASLAAAVIAKAAVAGILSSIIVGICLYLLGYQRTYTESDLS | failed |
| MSDNSKTRVVVGMSGGVDSSVTALLLKEQGYDVIGIFMKNWDDTDENGVCTATEDYKDVVAVADQIGIPYYSVNFEKEYWDRVFEYFLAEYRAGRTPNPDVMCNKEIKFKAFLDYAITLGADYVATGHYARVARDEDGTVHMLRGVDNGKDQTYFLSQLSQEQLQKTMFPLGHLEKPEVRRLAEEAGLSTAKKKDSTGICFIGEKNFKNFLSNYLPAQPGRMMTVDGRDMGEHAGLMYYTIGQRGGLGIGGQHGGDNAPWFVVGKDLSKNILYVGQGFYHDSLMSTSLEASQVHFTREMPEEFTLECTAKFRYRQPDSKVTVHVKGEKTEVIFAEPQRAITPGQAVVFYDGEECLGGGLIDNAYRDGQVCQYI | not failed |
| MVKVSIIIPIYNVENYLDKCLDTAVNQTLGCIEIIGIDDGSTDKSRDILNKYAKKYSFIKIINKENGGLSSARNTGIINAKGEYIYFLDSDDYIEYDSMKICYEIATKNKLDIVSFDAESFVDGEGFTKKLKKYDRKDILDGNIKMGCEYFCELIKNKCYTASACLNFYRREFLIDNNLFFYDGILHEDELYTVKAYTLANKVRYIPYKLYFRRLRSNSITTQSISEKHLYGRLIAARESYRHYLGYKDVFDNDTNTCLLNHISNMYYFMLKDIYENKRIYNKRYIIEDKIINDIKSKKDIKSFKLDLQYRFPLIIYTIKKYLKKD | failed |
